Measurements reported in patent US20030176382.

Molecular target: T1, synthetic peptide substrate ALERTFLSFPT
T1 chain: ALERTFLSFPT

B1: aspartyl proteinase purified from the adult hookworm Necator americanus (protein)
chain: GVYKIPLKRITPPMIKMLRAGTWETYVEGMRKRQLQLLKEHKVHIQDVLGYANMEYLGEITIGTPQQKFLVVLDTGSSNLWVPDDSCYKEKRPDRCLVSNCDAGLVCQVFCPDPKCCEHTREFKQVNACKDKHRFDQKNSNTYVKTNKTWAIAYGTGDARGFFGRDTVRLGAEGKDQLVINDTWFGQAEHIAEFFSNTFLDGILGLAFQELSEGGVAPPIIRAIDLGLLDQPIFTVYFENVGDKEGVYGGVFTWGGLDPDHCEDEVTYEQLTEATYWQFRLKGVSSKNFSSTAGWEAISDTGTSLNGAPRGILRSIARQYNGQYVASQGLYVVDCSKNVTVDVTIGDRNYTMTAKNLVLEIQADICIMAFFEMDMFIGPAWILGDPFIREYCNIHDIEKKRIGFAAVKH
substrate specificity assay (cleavage of a synthetic peptide substrate): the proteinase cleaved the synthetic peptide substrate ALERTFLSFPT (SEQ ID NO. 7)
